The source of these data is patent US20260265410A1 (UNIVERSITY OF FLORIDA RESEARCH FOUNDATION, published 2026).

B1: Fab_2282 (Fab, V domains shown)
VH: QEQLKESGGRLVTPGTPLTLTCTASGFTISSYHMSWVRQAPGKGLEWIGVISASGGSTYYASWAKGRFTISKTSTTVDLKITSPTTEDTATYFCARESYGGYNLWGPGTLVTVSS
VL: SFVLTQPASVQVNLGQMVSLTCTADTLSRSYASWYQQKPGQAPVLLIYRDTSRPSGVPDRFSGSTSGNTATLTISGAQAGDEADYYCATDDNSGSSYQYVFGGGTQLTVTG
notes: Chimeric rabbit/human Fab; also called N2282; mAb_2282
B2: Fab_2430 (Fab, V domains shown)
VH: AQSLEESGGRLVTPGTPLTLTCTVSGIDLSSYHMNWVRQAPGKGLEWIGIIGASAGTYYARWAKGRFTISKTSTTVDLKITSPTTEDTATYFCARSGGSMQLNLWGPGTLVTISS
VL: B1 VL with M17T, T65S, N92S
notes: Chimeric rabbit/human Fab; also called N2430
B3: Fab_277 (Fab, V domains shown)
VH: AQSLEESGGRLVTPGTPLTLTCTASGFTLSSYHMSWVRQAPGKGLEWIGIISSGGSIYYASWAKGRFTISRTSTTVDLKMTSPTTEDTATYFCARYAAYSIGMDLWGPGTLVTVSS
VL: B1 VL with S1Q
notes: Chimeric rabbit/human Fab; also called N277
B4: Fab_130 (Fab, V domains shown)
VH: QEQQKESGGGLFKPTDTLTLTCTVSGFSLSSNAISWVRQAPGNGLEWIGAIDNSGSAYYATWAKGRSTITRATNLNTVTLKMTSVTAADTATYFCAREDVRADSIDLNMWGPGTLVTISS
VL: B1 VL with M17T, T65S, D90S, N92G, Y99F
notes: Chimeric rabbit/human Fab; also called P130; clone 130
B5: Fab_11 (Fab, V domains shown)
VH: AQSLEESGGRLVTPGTPLTLTCTVSGFSLSSYAMTWVRQAPGEGLEWIGTIGAGGSPYYASWAKGRFTISKTATTVNLKIISPTTEDTATYFCAREGGGSYYFDLWGPGTLVTVSS
VL: B1 VL with M17T, T65S, D90S, N92G, S96T, Y97F, Q98H, Y99F
notes: Chimeric rabbit/human Fab; also called P11; mAb_11
B6: Fab_1955 (Fab, V domains shown)
VH: AQSLEESGGRLVTPGTPLTLTCTASGFSLYSYDMSWVRQAPGKGLEWIGLIDGGGNTYYASWAKGRFTISKTSSTTVDLKMTSLTTEDTATYFCARELWPAYSSGAFNIWGPGTLVTISS
VL: B1 VL with M17T, S30R, S52R, T65S, A88V, D90T, N92G, Q98L, Y99V
notes: Chimeric rabbit/human Fab; also called P1955; clone 1955

Where a chain is given by its changes, count along the chain named.

T6 sequence (P23470 20-1445): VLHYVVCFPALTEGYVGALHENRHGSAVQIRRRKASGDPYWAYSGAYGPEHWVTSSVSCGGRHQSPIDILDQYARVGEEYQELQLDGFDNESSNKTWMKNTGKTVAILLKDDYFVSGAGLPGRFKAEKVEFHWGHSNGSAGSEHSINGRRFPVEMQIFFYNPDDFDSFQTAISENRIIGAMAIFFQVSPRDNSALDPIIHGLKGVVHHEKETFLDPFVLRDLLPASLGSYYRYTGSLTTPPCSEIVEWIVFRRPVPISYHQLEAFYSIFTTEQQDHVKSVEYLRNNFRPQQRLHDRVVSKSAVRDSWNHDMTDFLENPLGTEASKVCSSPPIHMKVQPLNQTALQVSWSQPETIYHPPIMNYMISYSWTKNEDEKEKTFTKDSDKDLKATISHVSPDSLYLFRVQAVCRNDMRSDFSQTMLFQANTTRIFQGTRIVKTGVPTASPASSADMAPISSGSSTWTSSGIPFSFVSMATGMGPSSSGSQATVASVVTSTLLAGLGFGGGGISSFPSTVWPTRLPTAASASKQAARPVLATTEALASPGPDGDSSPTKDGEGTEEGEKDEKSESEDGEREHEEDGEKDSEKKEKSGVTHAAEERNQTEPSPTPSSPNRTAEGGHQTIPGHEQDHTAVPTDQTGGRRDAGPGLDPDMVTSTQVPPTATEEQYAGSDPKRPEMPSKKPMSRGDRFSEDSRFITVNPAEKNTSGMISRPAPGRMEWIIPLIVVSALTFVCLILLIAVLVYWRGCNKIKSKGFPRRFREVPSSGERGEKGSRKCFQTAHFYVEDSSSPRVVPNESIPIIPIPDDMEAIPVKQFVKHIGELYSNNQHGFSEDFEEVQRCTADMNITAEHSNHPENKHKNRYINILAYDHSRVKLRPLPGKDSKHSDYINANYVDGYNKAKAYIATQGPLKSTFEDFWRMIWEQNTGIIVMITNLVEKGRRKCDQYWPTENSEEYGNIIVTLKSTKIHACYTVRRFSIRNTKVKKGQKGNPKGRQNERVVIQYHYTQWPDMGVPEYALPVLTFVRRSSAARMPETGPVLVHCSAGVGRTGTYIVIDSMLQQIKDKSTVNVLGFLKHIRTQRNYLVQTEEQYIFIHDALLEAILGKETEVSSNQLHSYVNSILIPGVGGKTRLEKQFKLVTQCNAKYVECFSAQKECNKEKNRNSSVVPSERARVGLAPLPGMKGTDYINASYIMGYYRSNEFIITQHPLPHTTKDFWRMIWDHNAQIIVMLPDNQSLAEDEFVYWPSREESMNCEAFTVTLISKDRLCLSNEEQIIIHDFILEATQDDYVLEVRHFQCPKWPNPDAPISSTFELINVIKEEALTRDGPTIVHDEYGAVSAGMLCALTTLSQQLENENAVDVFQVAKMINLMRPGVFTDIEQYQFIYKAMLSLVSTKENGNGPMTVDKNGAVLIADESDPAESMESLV

The first assay has as its target T1, human PTPRG extracellular domain (ECD) (residues 20~736 of human PTPRG) fused to hFc (human, UniProt P23470 20-736).
T1 construct: Produced in-house by transient transfection of Expi293 cells; also called hPTPRG-ECD-hFc; hPTPRG-ECD; not shown: human Fc (hFc)
T1 sequence: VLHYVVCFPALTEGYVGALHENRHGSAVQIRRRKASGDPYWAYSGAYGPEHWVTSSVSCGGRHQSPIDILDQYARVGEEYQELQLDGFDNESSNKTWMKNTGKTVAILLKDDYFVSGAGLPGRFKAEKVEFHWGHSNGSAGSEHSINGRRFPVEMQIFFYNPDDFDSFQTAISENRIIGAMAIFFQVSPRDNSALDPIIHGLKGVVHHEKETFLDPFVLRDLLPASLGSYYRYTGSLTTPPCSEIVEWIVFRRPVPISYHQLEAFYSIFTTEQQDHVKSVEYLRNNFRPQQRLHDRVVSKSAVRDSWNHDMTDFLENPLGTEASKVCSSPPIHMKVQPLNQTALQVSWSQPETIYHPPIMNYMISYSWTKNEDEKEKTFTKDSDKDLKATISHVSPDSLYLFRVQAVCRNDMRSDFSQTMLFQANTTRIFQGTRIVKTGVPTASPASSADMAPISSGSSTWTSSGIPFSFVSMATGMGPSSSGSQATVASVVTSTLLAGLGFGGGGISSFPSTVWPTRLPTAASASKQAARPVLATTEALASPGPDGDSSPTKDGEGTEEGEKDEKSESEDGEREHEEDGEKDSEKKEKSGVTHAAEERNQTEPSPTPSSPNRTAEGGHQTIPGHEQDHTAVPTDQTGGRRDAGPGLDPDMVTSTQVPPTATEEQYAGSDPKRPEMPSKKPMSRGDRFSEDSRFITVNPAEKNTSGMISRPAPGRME
The experiment in a line: ELISA, absorbance at 405 nm, one condition per Fab and antigen. On the technique in general: ELISA stands for enzyme-linked immunosorbent assay.
For B1, the binding result is recorded as “no binding”.
As for B2, the binding result is given as “no binding”.
As for B3, the binding result is listed as “no binding”.

The target in the next assay is T2, human Nectin-2 extracellular domain (amino acid residues 1-360 of human Nectin-2) fused to hFc (human, UniProt Q92692 32-360).
T2 construct: Bought; also called hNectin-2-ECD-hFc; NECTIN2-ECD-hFc; not shown: human Fc (hFc)
T2 sequence: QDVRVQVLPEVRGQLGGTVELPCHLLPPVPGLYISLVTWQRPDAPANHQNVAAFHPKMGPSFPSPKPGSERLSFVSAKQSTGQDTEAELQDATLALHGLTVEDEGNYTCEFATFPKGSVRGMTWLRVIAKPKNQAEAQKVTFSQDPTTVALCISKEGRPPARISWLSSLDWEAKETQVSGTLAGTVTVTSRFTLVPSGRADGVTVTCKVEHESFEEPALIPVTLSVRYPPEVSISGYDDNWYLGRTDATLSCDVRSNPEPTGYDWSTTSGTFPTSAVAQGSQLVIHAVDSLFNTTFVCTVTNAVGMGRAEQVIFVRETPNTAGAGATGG
The assay is described as above.
With B4, the binding result is on record as “no binding”.
The same measure, in the same setting: the result for B5 reads “no binding”; that for B6, “no binding”.

The next assay concerns the target T3, human CD105-ECD: amino acid residues Met 1-Gly 586 of human CD105 (Sino bio: Cat: 10149-H02H) (human, UniProt P17813 26-586).
T3 construct: Bought; also called hCD105-ECD-hFc; hCD105-hFc
T3 sequence: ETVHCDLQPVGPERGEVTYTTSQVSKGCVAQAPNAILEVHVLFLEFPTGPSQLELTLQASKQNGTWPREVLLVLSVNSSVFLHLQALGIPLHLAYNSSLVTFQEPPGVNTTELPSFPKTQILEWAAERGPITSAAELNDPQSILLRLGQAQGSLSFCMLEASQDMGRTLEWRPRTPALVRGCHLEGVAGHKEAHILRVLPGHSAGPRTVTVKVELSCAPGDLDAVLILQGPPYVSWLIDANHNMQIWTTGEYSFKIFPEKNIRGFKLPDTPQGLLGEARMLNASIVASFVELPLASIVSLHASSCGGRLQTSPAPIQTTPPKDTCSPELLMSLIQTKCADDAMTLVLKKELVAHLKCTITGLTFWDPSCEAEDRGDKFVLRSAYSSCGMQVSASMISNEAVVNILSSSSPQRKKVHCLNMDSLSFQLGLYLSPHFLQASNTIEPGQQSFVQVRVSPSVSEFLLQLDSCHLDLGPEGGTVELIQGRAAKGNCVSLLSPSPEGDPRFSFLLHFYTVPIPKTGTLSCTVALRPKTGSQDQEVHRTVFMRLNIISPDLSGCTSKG
The description is as above.
With B4, the binding result is reported as “no binding”.
In the case of B1, the binding result was “no binding”.
On the same count and under the same terms, next, B2: “no binding”; B5: “no binding”.
Still for that read-out and setting: next, B6: “no binding”; B3: “no binding”.

In another assay the target is T4, mouse PTPRG ECD (amino acid residues 20-733 of mouse PTPRG) fused to hFc (mouse, UniProt Q05909 20-733).
T4 construct: Produced in-house; also called mPTPRG-ECD; Mouse PTPRG-ECD-hFc; not shown: human Fc (hFc)
T4 sequence: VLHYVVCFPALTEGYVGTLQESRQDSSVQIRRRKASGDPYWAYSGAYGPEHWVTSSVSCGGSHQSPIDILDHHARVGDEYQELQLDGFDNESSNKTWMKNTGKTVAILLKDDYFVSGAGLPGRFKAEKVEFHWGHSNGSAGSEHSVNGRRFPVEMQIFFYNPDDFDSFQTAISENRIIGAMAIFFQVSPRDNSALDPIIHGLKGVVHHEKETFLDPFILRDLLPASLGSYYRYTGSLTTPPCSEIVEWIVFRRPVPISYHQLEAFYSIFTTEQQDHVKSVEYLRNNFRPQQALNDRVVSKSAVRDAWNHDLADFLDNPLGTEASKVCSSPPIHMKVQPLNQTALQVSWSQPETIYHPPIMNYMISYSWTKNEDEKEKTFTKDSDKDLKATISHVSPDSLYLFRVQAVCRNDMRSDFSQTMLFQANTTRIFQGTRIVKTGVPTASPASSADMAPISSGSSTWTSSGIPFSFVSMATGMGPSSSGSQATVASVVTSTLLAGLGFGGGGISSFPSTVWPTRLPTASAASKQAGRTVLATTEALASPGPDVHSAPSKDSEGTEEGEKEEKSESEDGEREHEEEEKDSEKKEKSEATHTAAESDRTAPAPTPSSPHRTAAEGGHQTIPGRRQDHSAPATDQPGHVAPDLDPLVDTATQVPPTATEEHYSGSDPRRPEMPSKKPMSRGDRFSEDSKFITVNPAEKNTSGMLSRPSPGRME
The experiment in a line: ELISA, one condition per Fab and antigen; y axis 0 to 1.8 without name or unit.
On to B4, for which the binding result is “binds”.
Same read-out and setting: the result for B6 reads “binds”.

The target of another assay is T5, C-terminal domain (CTD) of human PTPRG (amino acid residues 349~736 of human PTPRG) (human, UniProt P23470 349-736).
T5 construct: also called hPTPRG-CTD; human PTPRG carboxyl domain
T5 sequence: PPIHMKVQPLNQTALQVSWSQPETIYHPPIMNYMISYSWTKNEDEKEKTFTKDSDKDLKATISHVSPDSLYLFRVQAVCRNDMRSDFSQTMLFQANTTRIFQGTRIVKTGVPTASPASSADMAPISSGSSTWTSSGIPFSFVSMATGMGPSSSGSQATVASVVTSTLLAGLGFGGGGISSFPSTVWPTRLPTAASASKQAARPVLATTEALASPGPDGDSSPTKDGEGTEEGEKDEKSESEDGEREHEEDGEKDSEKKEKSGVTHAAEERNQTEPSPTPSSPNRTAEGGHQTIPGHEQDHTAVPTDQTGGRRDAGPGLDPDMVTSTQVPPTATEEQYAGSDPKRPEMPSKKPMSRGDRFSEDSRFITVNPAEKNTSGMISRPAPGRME
The description is as above.
Consider B4, for which the binding result is on record as “no binding”.
As for B5, the binding result is listed as “no binding”.
For B6, the binding result is reported as “no binding”.

The next assay addresses T6, human PTPRG on the cell surface (U937 cells, HEL cells) (human, UniProt P23470 20-1445).
T6 construct: Endogenous PTPRG of human AML cell lines
The experiment in a line: flow cytometry on whole HEL cells, screen of the 28 clones (Ctrl row = 0); PTPRG is named as the antigen on HEL cells only in the later examples. In general terms: A flow cytometer gives signals particle by particle.
Take B4: the “flow cytometry binding value (the table prints no name or unit)” value stood at 12.6.
With B5, the “flow cytometry binding value (the table prints no name or unit)” value was -2.13.
In the case of B6, the “flow cytometry binding value (the table prints no name or unit)” value stood at 12.9.

The target in the next assay is T6, human PTPRG on the cell surface (U937 …). As to the kind of experiment: flow cytometry on whole U937 cells, screen of the 28 clones (Ctrl row = 0); PTPRG is named as the antigen on U937 cells only in the later examples.
Turning to B4, the “flow cytometry binding value (the table prints no name or unit)” value amounted to 78.3.
The same measure, in the same setting: the result for B5 reads 92.9.
In the case of B6, the “flow cytometry binding value (the table prints no name or unit)” value turned out to be 91.3.

In a further assay the target is T7, human Nectin-2 on the cell surface (U937 cells) (human, UniProt Q92692 32-538).
T7 construct: Endogenous Nectin-2 of U937 cells; also called PVRL2; CD112
T7 sequence: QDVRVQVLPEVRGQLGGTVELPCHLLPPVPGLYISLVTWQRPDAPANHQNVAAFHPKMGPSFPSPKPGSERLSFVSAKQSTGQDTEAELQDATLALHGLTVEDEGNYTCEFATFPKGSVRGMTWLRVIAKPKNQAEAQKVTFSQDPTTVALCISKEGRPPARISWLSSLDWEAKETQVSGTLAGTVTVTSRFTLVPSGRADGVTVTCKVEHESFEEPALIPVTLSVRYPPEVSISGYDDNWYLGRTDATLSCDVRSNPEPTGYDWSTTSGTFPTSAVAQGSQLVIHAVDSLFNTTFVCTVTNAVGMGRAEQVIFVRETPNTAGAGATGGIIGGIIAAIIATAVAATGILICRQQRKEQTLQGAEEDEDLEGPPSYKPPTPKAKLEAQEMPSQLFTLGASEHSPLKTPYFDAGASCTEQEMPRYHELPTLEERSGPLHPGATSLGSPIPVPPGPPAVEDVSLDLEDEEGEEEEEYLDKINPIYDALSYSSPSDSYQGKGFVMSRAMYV
As to the kind of experiment: flow cytometry on whole U937 cells, screen of the 28 clones (Ctrl row = 0); Nectin-2 is named as the antigen on U937 cells only in the later examples.
For the molecule B1, the “flow cytometry binding value (the table prints no name or unit)” value amounted to 92.2.
On to B2, for which the “flow cytometry binding value (the table prints no name or unit)” value worked out at 92.6.
Same read-out and setting: the result for B3 reads 87.8.
